# Target: the molecule itself
# Assay: SEC; 128 µM αB crystallin alone in 20 mM tris-HCl, 160 µM MgCl2, 40 µM EGTA, pH 8.0; Biosep SEC-S4000, eluted in 20 mM tris-Cl pH 8.0 at 4°C; size from calibration proteins (apparent); subunits to polydisperse complex
protein,measurement,value
"human αB crystallin (natural protein, UniProt P02511 1-175, looked up, human αB crystallin, expressed from a human αB crystallin pET16b plasmid; 20 kDa on SDS-PAGE; Polydisperse complex; pET16b can add an N-terminal His tag, but purification was by anion exchange and SEC, so the protein is probably untagged (surmise); also called small heat shock protein (sHSP); source: E. coli BL21 (DE3), purified (Q Sepharose Fast Flow, Superdex 200); copies: 24) MDIAIHHPWIRRPFFPFHSPSRLFDQFFGEHLLESDLFPTSTSLSPFYLRPPSFLRAPSWFDTGLSEMRLEKDRFSVNLDVKHFSPEELKVKVLGDVIEVHGKHEERQDEHGFISREFHRKYRIPADVDPLTITSSLSSDGVLTVNGPRKQVSGPERTIPITREEKPAVTAAPKK",stoichiometry N,24 subunits
